± gives the uncertainty stated by the source.
B1: Formin-binding protein 4, residues 200 to 261; numbered along this chain, Q8N3X1 (parent)
chain: SGWQYDTQCSLAGVGIEMGDWQEVWDENTGCYYYWNTQTNEVTWELPQYLATQVQGLQHYQP

Variants of: B1
Assay: abundance fitness (aPCA) (normalised: wild type 0, dead -1); higher = more abundant; growth selection in yeast, the domain comes from the species named
Details: Homo sapiens

In order of falling abundance fitness:
1. SGWQYDTQCSLAGVGIEMGDWQEVWDENTGCYYYWNTDTNEVTWELPQYLATQVQGLQHYQP [Q38D]  0.247 ± 0.16
2. SGWQYDTQCSLAGVGIEMGDWQEVWDENTGCYYYRNTQTNEVTWELPQYLATQVQGLQHYQP [W35R]  0.184 ± 0.059
3. SGWQYDTQCSLAGVGIEMGDWQEVWDENTGCYYYTNTQTNEVTWELPQYLATQVQGLQHYQP [W35T]  0.172 ± 0.09
4. SGWQYDTQCSLAGVGIEMGDWQEVWDENTGCYYYWNKQTNEVTWELPQYLATQVQGLQHYQP [T37K]  0.09 ± 0.094
5. SGWQYDTQCSLAGVGIEMGDWQEVWDENTGCYYYWNCQTNEVTWELPQYLATQVQGLQHYQP [T37C]  0.089 ± 0.11
6. SGWQYDTQCSLAGVGIEMGDWQEVWDENTGCYYYSNTQTNEVTWELPQYLATQVQGLQHYQP [W35S]  0.066 ± 0.075
7. SGWQYDTQCSLAGVGIEMGDWQEVWDENTGCYYYWNAQTNEVTWELPQYLATQVQGLQHYQP [T37A]  0.061 ± 0.067
8. SGWQYDTQCSLAGVGIEMGDWQEVWDENTGCYYYWNSQTNEVTWELPQYLATQVQGLQHYQP [T37S]  0.019 ± 0.064
9. SGWQYDTQCSLAGVGIEMGDWQEVWDENTGCYYYWNQQTNEVTWELPQYLATQVQGLQHYQP [T37Q]  0.01 ± 0.093
10. SGWQYDTQCSLAGVGIEMGDWQEVWDENTGCYYYWNHQTNEVTWELPQYLATQVQGLQHYQP [T37H]  -0.009 ± 0.12
11. SGWQYDTQCSLAGVGIEMGDWQEVWDENTGCYYYWNIQTNEVTWELPQYLATQVQGLQHYQP [T37I]  -0.022 ± 0.085
12. SGWQYDTQCSLAGVGIEMGDWQEVWDENTGCYYYWNVQTNEVTWELPQYLATQVQGLQHYQP [T37V]  -0.058 ± 0.065
13. SGWQYDTQCSLAGVGIEMGDWQEVWDENTGCYYYVNTQTNEVTWELPQYLATQVQGLQHYQP [W35V]  -0.104 ± 0.057
14. SGWQYDTQCSLAGVGIEMGDWQEVWDENTGCYYYWNRQTNEVTWELPQYLATQVQGLQHYQP [T37R]  -0.111 ± 0.071
15. SGWQYDTQCSLAGVGIEMGDWQEVWDENTGCYYYLNTQTNEVTWELPQYLATQVQGLQHYQP [W35L]  -0.112 ± 0.058
16. SGWQYDTQCSLAGVGIEMGDWQEVWDENTGCYYYWQTQTNEVTWELPQYLATQVQGLQHYQP [N36Q]  -0.121 ± 0.1
17. SGWQYDTQCSLAGVGIEMGDWQEVWDENTGCYYYWNLQTNEVTWELPQYLATQVQGLQHYQP [T37L]  -0.133 ± 0.062
18. SGWQYDTQCSLAGVGIEMGDWQEVWDENTGCYYYWNGQTNEVTWELPQYLATQVQGLQHYQP [T37G]  -0.135 ± 0.07
19. SGWQYDTQCSLAGVGIEMGDWQEVWDENTGCYYYWNFQTNEVTWELPQYLATQVQGLQHYQP [T37F]  -0.151 ± 0.082
20. SGWQYDTQCSLAGVGIEMGDWQEVWDENTGCYYYWNNQTNEVTWELPQYLATQVQGLQHYQP [T37N]  -0.166 ± 0.1
21. SGWQYDTQCSLAGVGIEMGDWQEVWDENTGCYYYWNDQTNEVTWELPQYLATQVQGLQHYQP [T37D]  -0.171 ± 0.11
22. SGWQYDTQCSLAGVGIEMGDWQEVWDENTGCYYYMNTQTNEVTWELPQYLATQVQGLQHYQP [W35M]  -0.189 ± 0.085
23. SGWQYDTQCSLAGVGIEMGDWQEVWDENTGCYYYWCTQTNEVTWELPQYLATQVQGLQHYQP [N36C]  -0.236 ± 0.11
24. SGWQYDTQCSLAGVGIEMGDWQEVWDENTGCYYYWNYQTNEVTWELPQYLATQVQGLQHYQP [T37Y]  -0.243 ± 0.14
25. SGWQYDTQCSLAGVGIEMGDWQEVWDENTGCYYYYNTQTNEVTWELPQYLATQVQGLQHYQP [W35Y]  -0.271 ± 0.36
26. SGWQYDTQCSLAGVGIEMGDWQEVWDENTGCYYYWETQTNEVTWELPQYLATQVQGLQHYQP [N36E]  -0.287 ± 0.11
27. SGWQYDTQCSLAGVGIEMGDWQEVWDENTGCYYYWNEQTNEVTWELPQYLATQVQGLQHYQP [T37E]  -0.297 ± 0.11
28. SGWQYDTQCSLAGVGIEMGDWQEVWDENTGCYYYWSTQTNEVTWELPQYLATQVQGLQHYQP [N36S]  -0.553 ± 0.084
29. SGWQYDTQCSLAGVGIEMGDWQEVWDENTGCYYYWMTQTNEVTWELPQYLATQVQGLQHYQP [N36M]  -0.603 ± 0.12
30. SGWQYDTQCSLAGVGIEMGDWQEVWDENTGCYYYWDTQTNEVTWELPQYLATQVQGLQHYQP [N36D]  -0.612 ± 0.17
31. SGWQYDTQCSLAGVGIEMGDWQEVWDENTGCYYYWGTQTNEVTWELPQYLATQVQGLQHYQP [N36G]  -0.64 ± 0.098
32. SGWQYDTQCSLAGVGIEMGDWQEVWDENTGCYYYWATQTNEVTWELPQYLATQVQGLQHYQP [N36A]  -0.645 ± 0.12
33. SGWQYDTQCSLAGVGIEMGDWQEVWDENTGCYYYWRTQTNEVTWELPQYLATQVQGLQHYQP [N36R]  -0.657 ± 0.081
34. SGWQYDTQCSLAGVGIEMGDWQEVWDENTGCYYYWKTQTNEVTWELPQYLATQVQGLQHYQP [N36K]  -0.663 ± 0.13
35. SGWQYDTQCSLAGVGIEMGDWQEVWDENTGCYYYWFTQTNEVTWELPQYLATQVQGLQHYQP [N36F]  -0.744 ± 0.16
36. SGWQYDTQCSLAGVGIEMGDWQEVWDENTGCYYYWWTQTNEVTWELPQYLATQVQGLQHYQP [N36W]  -0.814 ± 0.11
37. SGWQYDTQCSLAGVGIEMGDWQEVWDENTGCYYYWLTQTNEVTWELPQYLATQVQGLQHYQP [N36L]  -0.861 ± 0.094
38. SGWQYDTQCSLAGVGIEMGDWQEVWDENTGCYYYWPTQTNEVTWELPQYLATQVQGLQHYQP [N36P]  -0.897 ± 0.15
39. SGWQYDTQCSLAGVGIEMGDWQEVWDENTGCYYYWYTQTNEVTWELPQYLATQVQGLQHYQP [N36Y]  -0.961 ± 0.29
40. SGWQYDTQCSLAGVGIEMGDWQEVWDENTGCYYYWTTQTNEVTWELPQYLATQVQGLQHYQP [N36T]  -0.993 ± 0.14
41. SGWQYDTQCSLAGVGIEMGDWQEVWDENTGCYYYWVTQTNEVTWELPQYLATQVQGLQHYQP [N36V]  -1.02 ± 0.16
42. SGWQYDTQCSLAGVGIEMGDWQEVWDENTGCYYYPNTQTNEVTWELPQYLATQVQGLQHYQP [W35P]  -1.04 ± 0.19
43. SGWQYDTQCSLAGVGIEMGDWQEVWDENTGCYYYWITQTNEVTWELPQYLATQVQGLQHYQP [N36I]  -1.13 ± 0.31

— the Human Domainome abundance scans (Beltran et al. 2025)
